Test results published in patent US20240024520A1, “AUTONOMOUS KNOB DOMAIN PEPTIDES” (UCB BIOPHARMA SRL, priority 2020, published 2024).
“And” between values parts separate entries of the source, which are not always exact repeats. Equal values may be shown once. Read-outs that look alike come from different tables or passages of the source.

B1: K149 knob domain peptide, chemically synthesised, free energy method (Example 4) (peptide)
peptide: SCPDGFSYRSWDDFCCPMVGRCLAPRNGS
modifications: not checked
B2: K149B knob domain peptide, chemically synthesised, site-directed disulphides (peptide)
peptide: SCPDGFSYRSWDDFCCPMVGRCLAPRN
modifications: not checked
B3: K149 knob domain peptide cleaved from the 645 Fab (peptide)
peptide: GSGSCPDGFSYRSWDDFCCPMVGRCLAPRNGSENLYFQ
modifications: not checked
B4: K149chemFE knob domain peptide (peptide)
peptide: SCPDGFSYRSWDDFCCPMVGRCLAPRN
modifications: not checked
B5: K136 knob domain peptide cleaved from the 645 Fab (peptide)
peptide: GSTCPDNYREVDGCDPYDCCLTTWCTNSYCTRYIENLYFQ
modifications: not checked

What was measured:
[1] = target: human complement component C5 (human), P01031
human complement component C5 (human), P01031, sequence (P01031 19-673 limits assumed, chain 1 of 2): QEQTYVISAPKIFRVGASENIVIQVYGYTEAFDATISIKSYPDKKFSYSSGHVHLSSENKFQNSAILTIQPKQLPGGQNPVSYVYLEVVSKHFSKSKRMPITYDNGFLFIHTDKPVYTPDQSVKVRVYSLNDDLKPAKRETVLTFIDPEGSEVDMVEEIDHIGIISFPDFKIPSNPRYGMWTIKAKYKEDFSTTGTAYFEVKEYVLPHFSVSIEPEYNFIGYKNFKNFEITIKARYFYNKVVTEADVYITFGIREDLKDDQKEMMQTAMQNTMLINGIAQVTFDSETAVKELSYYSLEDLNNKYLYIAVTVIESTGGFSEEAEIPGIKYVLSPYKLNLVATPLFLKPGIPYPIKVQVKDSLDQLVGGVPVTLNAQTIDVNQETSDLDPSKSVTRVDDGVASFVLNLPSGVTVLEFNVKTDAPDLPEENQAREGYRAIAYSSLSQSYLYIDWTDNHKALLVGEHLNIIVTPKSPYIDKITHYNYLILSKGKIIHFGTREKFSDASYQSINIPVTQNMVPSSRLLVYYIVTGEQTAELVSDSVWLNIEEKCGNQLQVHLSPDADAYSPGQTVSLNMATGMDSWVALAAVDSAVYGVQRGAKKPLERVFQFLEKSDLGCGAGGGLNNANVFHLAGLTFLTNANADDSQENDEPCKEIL
human complement component C5 (human), P01031, sequence (P01031 678-1676 limits assumed, chain 2 of 2): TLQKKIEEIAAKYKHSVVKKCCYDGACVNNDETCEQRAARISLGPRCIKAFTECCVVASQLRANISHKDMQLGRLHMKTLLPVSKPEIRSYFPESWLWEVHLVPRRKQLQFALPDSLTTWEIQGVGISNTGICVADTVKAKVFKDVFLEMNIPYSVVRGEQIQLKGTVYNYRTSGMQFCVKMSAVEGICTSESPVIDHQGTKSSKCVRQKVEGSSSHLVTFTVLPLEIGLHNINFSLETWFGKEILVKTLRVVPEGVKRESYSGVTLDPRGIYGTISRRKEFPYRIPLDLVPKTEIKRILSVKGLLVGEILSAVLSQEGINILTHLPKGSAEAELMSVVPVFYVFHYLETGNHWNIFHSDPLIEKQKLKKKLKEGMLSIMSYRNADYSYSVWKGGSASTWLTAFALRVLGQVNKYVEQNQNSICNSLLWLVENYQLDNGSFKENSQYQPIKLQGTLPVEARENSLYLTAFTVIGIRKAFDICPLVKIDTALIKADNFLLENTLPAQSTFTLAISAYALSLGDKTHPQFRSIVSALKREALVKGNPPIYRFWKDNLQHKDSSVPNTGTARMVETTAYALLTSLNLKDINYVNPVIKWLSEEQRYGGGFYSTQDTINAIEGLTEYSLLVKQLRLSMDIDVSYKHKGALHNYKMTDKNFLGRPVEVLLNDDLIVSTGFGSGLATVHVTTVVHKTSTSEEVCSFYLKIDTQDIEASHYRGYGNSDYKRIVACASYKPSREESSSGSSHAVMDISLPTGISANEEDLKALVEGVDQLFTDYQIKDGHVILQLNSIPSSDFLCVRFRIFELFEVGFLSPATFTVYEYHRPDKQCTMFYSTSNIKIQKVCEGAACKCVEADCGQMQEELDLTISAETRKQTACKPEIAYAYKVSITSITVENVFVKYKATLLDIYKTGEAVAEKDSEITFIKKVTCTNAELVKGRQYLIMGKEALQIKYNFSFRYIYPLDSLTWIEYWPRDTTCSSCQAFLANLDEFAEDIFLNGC

[2] = target: human complement component C5 (human), P01031; remark: listed apart in the source
[3] = target: human complement component C5 (human), P01031; test: SPR multi-cycle kinetics
[4] = target: human complement component C5 (human), P01031; remark: listed apart in the source
[5] = target: human complement component C5 (human), P01031; remark: listed apart in the source

Binder | Kd [1] | koff [1] | kon [1] | Kd [2] | koff [2] | kon [2] | fold lower affinity than K149chemSD-A [3] | Kd [4] | Ki [5] | IC50 [5]
B1 | 0.00446 µM | 0.00685 s⁻¹ | 1.54e+06 M⁻¹ s⁻¹ |  |  |  |  |  |  | 
B2 | 0.246 µM | 0.00732 s⁻¹ | 29700 M⁻¹ s⁻¹ | 0.269 µM | 0.00417 s⁻¹ | 15600 M⁻¹ s⁻¹ | 35 fold |  |  | 
B3 |  |  |  |  |  |  |  | 0.0365 µM | 0.0267 µM | 
B4 |  |  |  | 0.00557 µM | 0.00448 s⁻¹ | 861000 M⁻¹ s⁻¹ |  |  |  | 
B5 |  |  |  |  |  |  |  | 0.0064 µM | 0.0189 µM | 0.0449 µM and 0.0312 µM
